The source of these data is patent US20230257444A1, “FUSION PROTEIN AND COMBINATIONS THEREOF” (Agency for Science, Technology and Research, priority 2020, published 2023).

The experiment has as its target T1, FcγRI (Homo sapiens, UniProt P12314).
T1 construct: soluble ectodomains of FcR from R&D Systems; purchased R&D Systems 1257-FC-050
Description: Surface plasmon resonance: binding to immobilised Fc receptor. The following applies: SPR. An excerpt:
A BIAcore T200 SPR Biosensors (GE Healthcare) was used to assay the interaction of soluble ectodomains of FcR from R&D Systems with hDectin1-Fc and IgG1. Amine coupling via N-hydroxysuccinimide ester was formed on a CM5 sensor chip surface according to a procedure recommended by the manufacturer. Ectodomains were immobilized at acidic pH, resulting in the following densities: FcγRI (#1257-FC-050): 1919 RU, FcγRIIa (#1330-CD-050/CF):1766 RU, FcγRIIb/c (#1875-CD-050): 1972 RU, FcγRIIIa (#4325-FC-050): 2275 RU, FcγRIIIb (#1597-FC-050/CF): 2393 RU, FcRn (#8639-FC-050): 2836. A range of hDectin1-Fc/IgG1 concentrations was injected into flow cells at a flow rate of […], with a contact and dissociation time of 300 and 900 seconds, respectively. After each assay cycle, the sensor chip surface was regenerated using 10 mM NaOH. Binding response was recorded as resonance units (RU; 1 RU=1 pg/mm^2) continuously, with background binding automatically subtracted. Due to the polyclonal nature of the hDectin1-Fc/IgG1 recombinant proteins used, kinetic constants (kon, koff, t1/2) were not determined, and the KD was calculated by analyzing the concentration-dependence of the steady-state signal reached at the end of the injection using BIA evaluation version 3 software (GE Healthcare) and Scrubber version 2 software (BioLogic Software, Campbell, Australia). The steady-state response was plotted against the concentration of hDectin1-Fc/IgG1 and fitted using Origin software.
Antibody mediated immune activation depends on the strength of binding and affinity of the Fc to the various Fcγ receptors. Binding to the neonatal receptor FcRn is also important for the half-life in serum and the transcytosis across endothelial cells into various tissues. Surface plasmon resonance was used to evaluate the binding of the Immunoglobulin G's Fc of hDectin1-Fc to the various Fc receptors (FcγRI, FcγRIIa, FcγRIIb, FcγRIIIa, FcγRIIIb and FcRn) present on immune cells by flowing free hDectin1-Fc of various concentrations over immobilised Fc receptors (FIG. 11A-F). […] High affinity FcγRI(CD64) is expressed on macrophages, monocytes and neutrophils and low affinity FcγRIIIa (CD16a) is expressed on natural killer cells, monocytes, macrophages and neutrophils. Both CD64 and CD16a activating receptors have Immunoreceptor Tyrosine based Activation Motif (ITAM) signalling domain. FcγRI strongly binds IgG opsonized targets to trigger phagocytosis and a proinflammatory response of TNFα, IFNγ and production of oxidative species. FcγRIIIa likewise activate degranulation, phagocytosis, and oxidative burst.
A general note: Surface plasmon resonance follows binding to a sensor surface in real time, without labels.

T1 sequence (P12314 16-292 limits assumed): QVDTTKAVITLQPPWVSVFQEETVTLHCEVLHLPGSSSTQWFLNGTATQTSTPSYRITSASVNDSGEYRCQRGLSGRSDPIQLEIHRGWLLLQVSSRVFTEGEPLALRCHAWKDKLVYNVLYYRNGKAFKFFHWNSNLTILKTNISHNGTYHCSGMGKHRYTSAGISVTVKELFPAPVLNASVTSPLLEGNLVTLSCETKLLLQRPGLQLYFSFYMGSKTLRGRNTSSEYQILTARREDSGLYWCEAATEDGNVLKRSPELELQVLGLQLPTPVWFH

With “hDectin1-Fc: soluble dimeric fusion protein: human Dectin-1 receptor polypeptide (aa 73-247) fused to human IgG1 Fc via hinge; SEQ ID NO: 5”, the “KD for FcγRI compared with Herceptin” value is given as “moderately weaker binding”. The “binding to FcγRI (Binding Constant KD screen)” value (steady state) is “able to interact with and bind to”.
